Columns and labels:
Experiment in all cases: affinity capture from mixture of 54 pTyr peptides, PRM-MS
[1] = target: BTK (pTyr551) peptide YVLDDEpYTSSVGSK
[2] = target: DDR1 (pTyr796/797) peptide NLYAGDpYpYR
[3] = target: DDR2 (pTyr740/741) peptide NLYSGDpYpYR
[4] = target: EPHA1 (pTyr781) peptide LLDDFDGTpYETQGGK
[5] = target: EPHA2 (pTyr772) peptide …pYTTSGGK
[6] = target: EPHA6 (pTyr830) peptide …pYTTTGGK
[7] = target: EPHA8 (pTyr793) peptide …pYTTTGGK
[8] = target: EPHB2 (pTyr780) peptide …pYTSALGGK
[9] = target: EPHB3 (pTyr792) peptide …pYTSSLGGK
[10] = target: ERBB2 (pTyr877) peptide LLDIDETEpYHADGGK
[11] = target: ERBB3 (pTyr866) peptide QLLpYSEAK
[12] = target: FGFR1 (pTyr653/654) peptide DIHHIDpYpYK
[13] = target: FGFR2 (pTyr656/657) peptide DINNIDpYpYK
[14] = target: FGFR3 (pTyr647/648) peptide DVHNLDpYpYK
[15] = target: FGFR4 (pTyr642/643) peptide GVHHIDpYpYK
[16] = target: INSRR (pTyr1145/1146) peptide DVYETDpYpYR
[17] = target: JAK1 (pTyr1034/1035) peptide EpYpYTVK
[18] = target: JAK2 (pTyr221) peptide IQDpYHILTR
[19] = target: JAK3 (pTyr980/981) peptide DpYpYVVR
[20] = target: LMTK2 (pTyr295) peptide EDpYIETDDK
[21] = target: LMTK3 (pTyr296/297) peptide EDpYpYLTPER
[22] = target: MET (pTyr1234/1235) peptide EpYpYSVHNK
[23] = target: NTRK1 (pTyr680/681) peptide DIYSTDpYpYR
[24] = target: NTRK2 (pTyr706/707) peptide DVYSTDpYpYR
[25] = target: PTK7 (pTyr960/961) peptide DVYNSEpYpYHFR
[26] = target: RON (pTyr1238/1239) peptide EpYpYSVQQHR
[27] = target: ROR1 (pTyr645/646) peptide EIYSADpYpYR
[28] = target: ROR2 (pTyr645/646) peptide EVYAADpYpYK
[29] = target: TEC (pTyr519) peptide YVLDDQpYTSSSGAK
[30] = target: TXK (pTyr420) peptide YVLDDEpYVSSFGAK
[31] = target: TYK2 (pTyr1054/1055) peptide AVPEGHEpYpYR
[32] = target: BLK (pTyr389) peptide IIDSEpYTAQEGAK
[33] = target: BMX (pTyr566) peptide YVLDDQpYVSSVGTK
[34] = target: EPHA3 (pTyr779) peptide …pYTTR
[35] = target: EPHB1 (pTyr778) peptide …pYTSSLGGK
[36] = target: EPHB4 (pTyr774) peptide …pYTSSLGGK
[37] = target: FER (pTyr714) peptide QEDGGVpYSSSGLK
[38] = target: FES (pTyr713) peptide EEADGVpYAASGGLR
[39] = target: FRK (pTyr387) peptide VDNEDIpYESR
[40] = target: GSK3 (pTyr279/216) peptide GEPNVSpYICSR
[41] = target: HCK (pTyr411) peptide VIEDNEpYTAR
[42] = target: ITK (pTyr512) peptide FVLDDQpYTSSTGTK
[43] = target: KIT (pTyr823) peptide NDSNpYVVK
[44] = target: MERTK (pTyr753/754) peptide IYSGDpYpYR
[45] = target: MUSK (pTyr755/756) peptide NIYSADpYpYK
[46] = target: PGFRB (pTyr857) peptide DSNpYISK
[47] = target: RET (pTyr905) peptide DVYEEDSpYVK
[48] = target: SRC (pTyr419) peptide LIEDNEpYTAR
[49] = target: SRMS (pTyr380) peptide DDIpYSPSSSSK
[50] = target: TIE1 (pTyr1007) peptide GEEVpYVK
[51] = target: TIE2 (pTyr992) peptide GQEVpYVK
[52] = target: VGFR1 (pTyr1053) peptide NPDpYVR
[53] = target: VGFR2 (pTyr1059) peptide DPDpYVR

DM human Src SH2 Superbinder expressed with His6 and GST tags (designed binder)
PRM signal peak area [1]: 18200
PRM signal peak area [2]: 43200
PRM signal peak area [3]: 16200
PRM signal peak area [4]: 12300
PRM signal peak area [5]: 4860
PRM signal peak area [6]: 51100
PRM signal peak area [7]: 57100
PRM signal peak area [8]: 98000
PRM signal peak area [9]: 14700
PRM signal peak area [10]: 4640
PRM signal peak area [11]: 152000
PRM signal peak area [12]: 29000
PRM signal peak area [13]: 39500
PRM signal peak area [14]: 64600
PRM signal peak area [15]: 30000
PRM signal peak area [16]: 7790
PRM signal peak area [17]: 46200
PRM signal peak area [18]: 39200
PRM signal peak area [19]: 10500
PRM signal peak area [20]: 1120
PRM signal peak area [21]: 78600
PRM signal peak area [22]: 70800
PRM signal peak area [23]: 30200
PRM signal peak area [24]: 22800
PRM signal peak area [25]: 4840
PRM signal peak area [26]: 17400
PRM signal peak area [27]: 27700
PRM signal peak area [28]: 60500
PRM signal peak area [29]: 4820
PRM signal peak area [30]: 46100
PRM signal peak area [31]: 9680

TrM human Src SH2 Superbinder expressed with His6 and GST tags (designed binder)
PRM signal peak area [32]: 156000
PRM signal peak area [33]: 151000
PRM signal peak area [1]: 1.31e+06
PRM signal peak area [2]: 338000
PRM signal peak area [3]: 185000
PRM signal peak area [4]: 188000
PRM signal peak area [5]: 347000
PRM signal peak area [34]: 394000
PRM signal peak area [6]: 288000
PRM signal peak area [7]: 585000
PRM signal peak area [35]: 206000
PRM signal peak area [8]: 215000
PRM signal peak area [9]: 260000
PRM signal peak area [36]: 134000
PRM signal peak area [10]: 42700
PRM signal peak area [11]: 164000
PRM signal peak area [37]: 27400
PRM signal peak area [38]: 25100
PRM signal peak area [12]: 51200
PRM signal peak area [13]: 87100
PRM signal peak area [14]: 258000
PRM signal peak area [15]: 36100
PRM signal peak area [39]: 291000
PRM signal peak area [40]: 48300
PRM signal peak area [41]: 384000
PRM signal peak area [16]: 20800
PRM signal peak area [42]: 403000
PRM signal peak area [17]: 110000
PRM signal peak area [18]: 85500
PRM signal peak area [19]: 19700
PRM signal peak area [43]: 235000
PRM signal peak area [20]: 20900
PRM signal peak area [21]: 376000
PRM signal peak area [44]: 26500
PRM signal peak area [22]: 111000
PRM signal peak area [45]: 178000
PRM signal peak area [23]: 103000
PRM signal peak area [24]: 115000
PRM signal peak area [46]: 398000
PRM signal peak area [25]: 8860
PRM signal peak area [47]: 883000
PRM signal peak area [26]: 44300
PRM signal peak area [27]: 177000
PRM signal peak area [28]: 334000
PRM signal peak area [48]: 99500
PRM signal peak area [49]: 479000
PRM signal peak area [29]: 781000
PRM signal peak area [50]: 409000
PRM signal peak area [51]: 210000
PRM signal peak area [30]: 272000
PRM signal peak area [31]: 53500
PRM signal peak area [52]: 158000
PRM signal peak area [53]: 197000

wild-type (wt) human Src SH2 domain expressed with His6 and GST tags
PRM signal peak area [1]: 4210
PRM signal peak area [2]: 47700
PRM signal peak area [3]: 15300
PRM signal peak area [6]: 2740
PRM signal peak area [8]: 10800
PRM signal peak area [11]: 41900
PRM signal peak area [12]: 28500
PRM signal peak area [13]: 51600
PRM signal peak area [14]: 104000
PRM signal peak area [15]: 29800
PRM signal peak area [17]: 58300
PRM signal peak area [19]: 23300
PRM signal peak area [21]: 29900
PRM signal peak area [22]: 26800
PRM signal peak area [45]: 47600
PRM signal peak area [23]: 21700
PRM signal peak area [24]: 39600
PRM signal peak area [26]: 5430
PRM signal peak area [27]: 32400
PRM signal peak area [28]: 85900
PRM signal peak area [30]: 1520
PRM signal peak area [31]: 11600

From patent US20200031885A1
